From patent publication US10253109 (BLOODWORKS, dated 2019)

Legend:
[1] = molecular target: T1, human Kell glycoprotein, K (KEL1) form (human, UniProt P23276 1-732); assay: flow cytometry on RBCs (FIGS. 7A, 7B)
T1 construct: whole, on cells; also called K form of the Kell glycoprotein; K/K RBCs
T1 sequence (looked up): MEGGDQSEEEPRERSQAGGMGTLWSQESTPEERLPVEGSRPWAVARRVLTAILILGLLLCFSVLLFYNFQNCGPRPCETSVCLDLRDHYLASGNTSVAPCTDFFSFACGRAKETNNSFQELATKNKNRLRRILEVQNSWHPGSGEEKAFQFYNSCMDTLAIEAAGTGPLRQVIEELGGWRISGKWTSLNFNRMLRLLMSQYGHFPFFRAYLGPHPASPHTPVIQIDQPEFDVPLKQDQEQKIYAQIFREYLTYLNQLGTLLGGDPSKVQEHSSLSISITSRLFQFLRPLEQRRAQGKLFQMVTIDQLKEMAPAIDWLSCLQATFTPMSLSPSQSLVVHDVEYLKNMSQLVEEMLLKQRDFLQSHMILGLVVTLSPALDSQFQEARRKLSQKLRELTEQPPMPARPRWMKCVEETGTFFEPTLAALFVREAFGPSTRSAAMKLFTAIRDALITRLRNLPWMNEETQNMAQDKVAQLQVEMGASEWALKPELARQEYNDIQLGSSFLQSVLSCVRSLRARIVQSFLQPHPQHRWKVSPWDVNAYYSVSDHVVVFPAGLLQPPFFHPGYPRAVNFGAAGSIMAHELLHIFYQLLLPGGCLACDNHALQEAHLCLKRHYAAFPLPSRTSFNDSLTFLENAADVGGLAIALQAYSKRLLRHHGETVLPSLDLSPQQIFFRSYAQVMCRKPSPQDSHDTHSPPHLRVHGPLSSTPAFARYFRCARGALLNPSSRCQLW
Protocol: (§1) The specificities of the antibodies are shown in FIGS. 7A, 7B, 8A, 8B, 9A-9C, and 10A-10I. The specificities of the antibodies were determined to be: PUMA1/2 (KEL1 or K), PUMA 3 (a common Kell epitope, PUMA 4 (KEL4 or Kp^b). Flow cytometry was utilized to test antibody specificity by indirect immunofluorescence, using the monocolonal antibodies as the primary reagent and a goat-anti-mouse antibody (conjugated to allophycocyanin) as a secondary antibody. Different target cells expressing different Kell variants were used to determine specificity. Targets included RBCs that phenotyped as homozygous for the 3 main antithetical antigens in the Kell system, K/K, k/k, Kp^b/Kp^b, Kp^a/Kp^a, Js^b/Js^b, Js^a/Js^a. Differential binding to such tarets tests specificity. In the case of PUMA ½, binding was only observed when K was present but not on k/k RBCs. In the case of PUMA 3, binding was observed on all RBCs regardless of phenotype for K/k, Kp^a/Kp^b, or Js^a/Js^b, thus indicating a common epitope outside these systems. However, PUMA 3 bound to only KELL glycoprotein transgenic murine RBCs and not wild-type murine RBCs; thus, the epitope recognized by PUMA 3 is on the KELL molecule, but not K/k, Kp^a/Kp^b, or Js^a/Js^b. For PUMA 4, binding was only observed when Kp^b was present but not on Kp^a/Kp^a RBCs.

[2] = molecular target: T2, human Kell glycoprotein, k (KEL2) form (human, UniProt P23276 1-732); assay: flow cytometry, indirect immunofluorescence on RBCs
T2 construct: also called k form; k/k RBCs
T2 sequence: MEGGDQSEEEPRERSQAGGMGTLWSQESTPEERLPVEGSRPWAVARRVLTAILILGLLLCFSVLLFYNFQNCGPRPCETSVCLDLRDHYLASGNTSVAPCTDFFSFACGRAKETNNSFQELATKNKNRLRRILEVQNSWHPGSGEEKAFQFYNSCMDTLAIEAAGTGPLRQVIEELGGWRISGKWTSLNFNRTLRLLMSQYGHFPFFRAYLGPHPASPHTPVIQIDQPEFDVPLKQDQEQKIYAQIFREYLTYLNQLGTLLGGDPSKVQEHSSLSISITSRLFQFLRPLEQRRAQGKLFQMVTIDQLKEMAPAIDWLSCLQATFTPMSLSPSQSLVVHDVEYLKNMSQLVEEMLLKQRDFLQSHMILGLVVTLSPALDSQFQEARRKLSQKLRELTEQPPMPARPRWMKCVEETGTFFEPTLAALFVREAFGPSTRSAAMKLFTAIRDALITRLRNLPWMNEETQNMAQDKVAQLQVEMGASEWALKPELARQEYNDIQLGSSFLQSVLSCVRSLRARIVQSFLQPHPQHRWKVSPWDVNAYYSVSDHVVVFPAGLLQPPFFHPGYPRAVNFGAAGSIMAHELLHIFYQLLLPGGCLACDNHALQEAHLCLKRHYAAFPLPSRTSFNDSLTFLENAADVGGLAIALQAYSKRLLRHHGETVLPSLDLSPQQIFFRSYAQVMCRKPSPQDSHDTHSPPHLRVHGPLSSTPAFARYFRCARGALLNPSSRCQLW
Protocol: as §1

[3] = molecular target: T3, human Kell glycoprotein transgene (KEL1, Kp^b, Js^b variants) on murine RBCs (human, UniProt P23276 1-732); assay: in vivo, passive immunization of mice and transfusion of KEL1+ RBCs
T3 construct: whole, on cells; also called KELL glycoprotein transgenic murine RBCs; KEL1+RBCs
T3 sequence (looked up): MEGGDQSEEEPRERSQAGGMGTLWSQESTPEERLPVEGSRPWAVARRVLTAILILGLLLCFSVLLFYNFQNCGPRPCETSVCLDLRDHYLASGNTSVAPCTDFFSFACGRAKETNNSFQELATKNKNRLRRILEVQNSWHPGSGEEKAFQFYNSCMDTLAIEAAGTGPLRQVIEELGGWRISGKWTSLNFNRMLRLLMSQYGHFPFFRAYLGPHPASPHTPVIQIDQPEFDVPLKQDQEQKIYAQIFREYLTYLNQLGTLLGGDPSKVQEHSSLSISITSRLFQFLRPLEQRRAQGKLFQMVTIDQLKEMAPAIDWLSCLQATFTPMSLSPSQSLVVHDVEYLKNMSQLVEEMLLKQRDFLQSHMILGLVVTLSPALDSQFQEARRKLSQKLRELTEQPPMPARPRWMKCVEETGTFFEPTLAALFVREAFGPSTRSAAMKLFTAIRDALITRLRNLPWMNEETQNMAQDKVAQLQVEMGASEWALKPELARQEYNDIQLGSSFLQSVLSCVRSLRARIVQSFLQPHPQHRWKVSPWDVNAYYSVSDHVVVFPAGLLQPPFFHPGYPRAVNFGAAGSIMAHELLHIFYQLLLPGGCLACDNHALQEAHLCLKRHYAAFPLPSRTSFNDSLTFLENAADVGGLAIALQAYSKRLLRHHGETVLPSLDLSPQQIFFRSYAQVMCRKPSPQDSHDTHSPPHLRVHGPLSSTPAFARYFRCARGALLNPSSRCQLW
Protocol: The ability of PUMA1 to induce a HTR was tested by passive immunization of wild-type mice with PUMA1 (by intravenous tail-vein injection), followed by transfusion with murine KEL1+RBCs from KEL1 transgeneic mouse donors. Compared to a control group that got only PBS, PUMA1 caused a brisk clearance of KEL1+RBCs, after which, the surviving RBCs continued to circulate, as is typical of HTRs in both mice and also in humans (FIG. 13). Thus, PUMA1 specifically binds to KEL1 RBCs, in vivo, with sufficient activity to induce an HTR.

[4] = molecular target: T1, human Kell glycoprotein, K (KEL1) form; assay: flow cytometry, indirect immunofluorescence on K/K RBCs
Protocol: as §1

[5] = molecular target: T3, human Kell glycoprotein transgene …; assay: flow cytometry, indirect immunofluorescence on transgenic murine RBCs
Protocol: as §1

[6] = molecular target: T2, human Kell glycoprotein, k (KEL2) form; assay: flow cytometry, indirect immunofluorescence on k/k RBCs
Protocol: as §1

[7] = molecular target: T4, human Kell glycoprotein, Kp^a (KEL3) form (human, UniProt P23276 1-732); assay: flow cytometry, indirect immunofluorescence on RBCs
T4 construct: whole, on cells; also called Kp^a/Kp^a RBCs
T4 sequence (looked up): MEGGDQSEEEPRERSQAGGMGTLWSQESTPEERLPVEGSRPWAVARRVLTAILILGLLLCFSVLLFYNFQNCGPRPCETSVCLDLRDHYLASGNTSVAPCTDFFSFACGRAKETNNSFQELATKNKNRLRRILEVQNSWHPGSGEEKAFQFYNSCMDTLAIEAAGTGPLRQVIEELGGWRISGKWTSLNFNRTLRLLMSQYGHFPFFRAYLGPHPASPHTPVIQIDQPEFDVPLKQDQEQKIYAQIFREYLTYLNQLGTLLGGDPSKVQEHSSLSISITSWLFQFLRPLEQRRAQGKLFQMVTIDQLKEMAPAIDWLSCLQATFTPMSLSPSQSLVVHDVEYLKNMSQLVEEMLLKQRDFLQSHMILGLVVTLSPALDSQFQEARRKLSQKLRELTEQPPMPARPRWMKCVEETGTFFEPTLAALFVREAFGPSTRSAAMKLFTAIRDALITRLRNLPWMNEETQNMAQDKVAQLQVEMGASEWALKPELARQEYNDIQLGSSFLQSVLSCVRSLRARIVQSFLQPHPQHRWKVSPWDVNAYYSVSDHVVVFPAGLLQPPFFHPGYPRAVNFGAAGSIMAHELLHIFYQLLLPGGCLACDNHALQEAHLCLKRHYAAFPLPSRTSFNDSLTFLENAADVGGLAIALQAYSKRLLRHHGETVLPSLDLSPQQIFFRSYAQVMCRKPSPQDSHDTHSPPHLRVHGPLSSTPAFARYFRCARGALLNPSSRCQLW
Protocol: as §1

B1: monoclonal antibody PUMA 1 (antibody, V domains shown)
VH: EVQLQQSGPELVKPGASVKMSCKASGYTFTDYYMKWVKQSHGKSLEWIGDLNPNNGDTFYNQKFKGKATLTVDKSSSTAYIQLNSLTSEDSAVYYCAREAGSSFGSSCNYWGQGTTLTVS
VL: SVVMTQTPKFLLVSAGDRVTITCKASQTVSKDVAWYQQQPGQSPKLLIYYASNRYTGVPDRFTGSGYGTDFTFTISTVQAEDLAVYFCQQDYSSPYTFGGGTKLEIK
notes: also called PUMA 2; Puma 2
B1: binds [1]; no binding [2]; binds [3].

B2: monoclonal antibody PUMA 3 (antibody, V domains shown)
VH: QVQLKESGPGLLAPSQSLSITCTVSGFSLTSYGVYWVRQPPGKGLEWLGIIWGDGSTNYQSVLRSRLSITKDDSKSQVFLKLNSLQTDDTATYYCAKRGDYDVAYWGQGTLVTVSA
VL: DIVLTQSPASLAVSLGQRAIISCKASQTVSEVGTSLMHWYQQRPGQQPKLLIYRTSNLEAGVPTRFSGSGSRTDFTLNIHPVEEDDAATYYCQQSREFPWTFGGGTRLEIK
notes: Mouse monoclonal antibody from hybridoma
B2: binds [4]; binds [5]; binds [6].

B3: monoclonal antibody PUMA 4 (antibody, V domains shown)
VH: EVKLEESGGGLVQPGGSMKLSCVASGFTFSNYWMNWVRQPPEKGLEWVAEIRLNSNNYATHYAESVKGKFTISRDDSKSSVYLQMNDLRAEDTGIYYCTRNWDFAWFDSWGQGTLVTVSA
VL: DIVMTQSHKFMSTSVGDRVSITCKASQDVSTVVAWYQQKPGQSPKLLIYWASTRHTGVPDRFTGSGSGTDYTLTISSVQAEDLALYYCQQHYTTPFTFGSGTKLEIK
notes: as for B2
B3: no binding [7].
